Results on three molecules are retold here after publication PMC10150487, “m^6A readers ECT2/ECT3/ECT4 enhance mRNA stability through direct recruitment of the poly(A) binding proteins in Arabidopsis” (Genome Biology, 2023).

Test [1] addresses T1, GST-tagged full-length ECT2 (Arabidopsis thaliana, UniProt Q9LJE5 1-667).
T1 construct: also called GST-ECT2; Evolutionarily conserved C-terminal region 2
T1 sequence (looked up): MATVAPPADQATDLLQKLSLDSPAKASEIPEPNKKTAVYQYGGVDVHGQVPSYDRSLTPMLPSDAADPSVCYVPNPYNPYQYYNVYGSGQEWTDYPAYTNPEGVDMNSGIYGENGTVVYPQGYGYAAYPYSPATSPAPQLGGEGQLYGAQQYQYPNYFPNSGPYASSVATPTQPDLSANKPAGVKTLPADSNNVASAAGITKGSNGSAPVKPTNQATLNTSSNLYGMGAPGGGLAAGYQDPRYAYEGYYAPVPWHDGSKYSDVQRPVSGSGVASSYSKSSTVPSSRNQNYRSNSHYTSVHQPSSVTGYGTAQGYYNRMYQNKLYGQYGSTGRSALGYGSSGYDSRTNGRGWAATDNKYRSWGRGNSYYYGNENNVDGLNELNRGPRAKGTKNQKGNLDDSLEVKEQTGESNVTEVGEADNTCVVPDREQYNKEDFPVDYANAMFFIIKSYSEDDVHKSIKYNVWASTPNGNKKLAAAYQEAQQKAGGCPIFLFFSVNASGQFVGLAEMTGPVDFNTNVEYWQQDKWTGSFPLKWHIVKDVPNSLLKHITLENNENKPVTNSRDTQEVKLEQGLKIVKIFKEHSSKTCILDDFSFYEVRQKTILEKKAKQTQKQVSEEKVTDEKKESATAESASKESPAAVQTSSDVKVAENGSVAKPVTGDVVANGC
The experiment in a line: pull-down; GST pull-down: 100 pmol pre-cleared MBP-PAB2 or MBP-PAB4 mixed with 100 pmol GST or GST-ECT2 (full length or fragments) and glutathione magnetic agarose beads, 2 h at 4 °C, IPP buffer (150 mM NaCl, 0.1% NP-40, 10 mM Tris pH 7.4, 0.5 mM DTT); immunoblot with anti-MBP and anti-GST. To be noted: both partners purified. For orientation: Immunoblotting shows a protein as a band on a membrane.

Test [2] has as its target T1, GST-tagged full-length ECT2. The test is described as follows: pull-down; GST pull-down: purified MBP-ECT3 and SUMO-ECT4 incubated with GST-ECT2 or GST alone, GST magnetic beads, immunoblot with anti-GST, anti-MBP and anti-SUMO. To be noted: both partners purified.

B1: MBP-tagged PAB2 (natural protein, Arabidopsis thaliana, UniProt P42731 1-629, looked up)
chain: MAQVQLQGQTPNGSTAAVTSAPATSGGATATQFGNTSLYVGDLDFNVTDSQLFDAFGQMGTVVTVRVCRDLVTRRSLGYGYVNFTNPQDAARAIQELNYIPLYGKPIRVMYSHRDPSVRRSGAGNIFIKNLDESIDHKALHDTFSSFGNIVSCKVAVDSSGQSKGYGFVQYANEESAQKAIEKLNGMLLNDKQVYVGPFLRRQERDSTANKTKFTNVYVKNLAESTTDDDLKNAFGEYGKITSAVVMKDGEGKSKGFGFVNFENADDAARAVESLNGHKFDDKEWYVGRAQKKSERETELRVRYEQNLKEAADKFQSSNLYVKNLDPSISDEKLKEIFSPFGTVTSSKVMRDPNGTSKGSGFVAFATPEEATEAMSQLSGKMIESKPLYVAIAQRKEDRRVRLQAQFSQVRPVAMQPSVGPRMPVYPPGGPGIGQQMFYGQAPPAMIPPQPGYGYQQQLVPGMRPGGGPVPSFFMPMVQPQQQRPGGGRRPGGIQHSQQQNPMMQQQMHPRGRMFRYPQGRGGSGDVPPYDMGNNMPLTIGALASNLSNATPEQQRTMLGEVLYPLVEQVEAESAAKVTGMLLEMDQTEVLHLLESPEALKAKVAEAMDVLRSVAAGGATEQLASLNLS
notes: also called MBP-PAB2; source: Escherichia coli BL-21 Gold, purified (amylose resin)
Regarding B1, in test [1], the binding result is listed as “binds”.

B2: maltose-binding protein (MBP)-tagged ECT3 (natural protein, Arabidopsis thaliana, UniProt F4K1Z0 1-495, looked up)
chain: MANPDHVSDVLHNLSIDPTTKALAPDSETKLQGAYGGNGNDFLLNDELVEATKIGKPSLLSKDGGVTKDKGSNLKKLGYQSAAYNAKGSYGKGAYAYGYYPPAYQYPRHGYTGSYASGKTNLQYQYLTQQGRSAGNGQSYGGYMDNIYSNYGMCGPYTNGYGYGSYGYDSWKYMPNWYAVNNTYKPRNGYHGYGKENIEGLNEMNRGPRAKGFNSQDGSKVMAVSLKEQRVTETEKLSEDVSLLDPKDYNKIDFPETYTEAKFYVIKSYSEDDIHKSIKYSVWSSTPNGNKKLDASYNEAKQKSDGCPVFLLFSVNTSGQFVGLAEMVGPVDFNKTVEYWQQDKWIGCFPVKWHFVKDIPNSSLRHITLENNENKPVTNSRDTQEVKLEQGIKVIKIFKDHASKTCILDDFEFYENRQKIIQERKSKHLQIKKQTLVANADKGVMSKINLVKPQESTTASEDAAALGVAAEVTKESKVVKETELPVEKNAVATAC
notes: also called MBP-ECT3; source: Escherichia coli, purified recombinant protein
On to B2, for which the binding result in test [2] was “binds”.

B3: MBP-tagged PAB4 (natural protein, Arabidopsis thaliana, UniProt O22173 1-662, looked up)
chain: MAQVQAPSSHSPPPPAVVNDGAATASATPGIGVGGGGDGVTHGALCSLYVGDLDFNVTDSQLYDYFTEVCQVVSVRVCRDAATNTSLGYGYVNYSNTDDAEKAMQKLNYSYLNGKMIRITYSSRDSSARRSGVGNLFVKNLDKSVDNKTLHEAFSGCGTIVSCKVATDHMGQSRGYGFVQFDTEDSAKNAIEKLNGKVLNDKQIFVGPFLRKEERESAADKMKFTNVYVKNLSEATTDDELKTTFGQYGSISSAVVMRDGDGKSRCFGFVNFENPEDAARAVEALNGKKFDDKEWYVGKAQKKSERELELSRRYEQGSSDGGNKFDGLNLYVKNLDDTVTDEKLRELFAEFGTITSCKVMRDPSGTSKGSGFVAFSAASEASRVLNEMNGKMVGGKPLYVALAQRKEERRAKLQAQFSQMRPAFIPGVGPRMPIFTGGAPGLGQQIFYGQGPPPIIPHQPGFGYQPQLVPGMRPAFFGGPMMQPGQQGPRPGGRRSGDGPMRHQHQQPMPYMQPQMMPRGRGYRYPSGGRNMPDGPMPGGMVPVAYDMNVMPYSQPMSAGQLATSLANATPAQQRTLLGESLYPLVDQIESEHAAKVTGMLLEMDQTEVLHLLESPEALNAKVSEALDVLRNVNQPSSQGSEGNKSGSPSDLLASLSINDHL
notes: also called MBP-PAB4; source: Escherichia coli BL-21 Gold, purified (amylose resin)
For B3, the binding result in test [1] was “binds”.
